The record followed here is article PMC6614801.

The target of this assay is T1, SuhB (inositol mono-phosphatase SuhB), wild type (E. coli), P0ADG4.
T1 chain: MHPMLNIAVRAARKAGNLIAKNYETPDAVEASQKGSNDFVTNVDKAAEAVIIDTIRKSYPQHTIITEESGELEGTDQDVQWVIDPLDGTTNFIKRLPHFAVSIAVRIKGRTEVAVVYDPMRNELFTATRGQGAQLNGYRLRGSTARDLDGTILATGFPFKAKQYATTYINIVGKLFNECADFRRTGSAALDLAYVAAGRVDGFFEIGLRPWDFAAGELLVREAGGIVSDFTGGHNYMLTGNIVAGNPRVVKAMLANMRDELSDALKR
The assay can be described thus: SEC-MALS; 60 μl (15 nmol) of SuhB on Superdex 200 increase 10/300; 20 mM HEPES pH 7.5, 50 mM NaCl, 0.02% (w/v) NaN3. The settings on record: remark: other sources report otherwise.

Broadly, the stoichiometry N is the number of molecules, sites or subunits per partner or assembly.

B1: SuhB (inositol mono-phosphatase SuhB), wild type, P0ADG4 1-267 (natural protein)
chain: T1 chain
Consider B1, for which the stoichiometry N is 2.
